In assay [1] the target is H2A.Z-containing nucleosome (H. sapiens histone octamer, H2B labeled with ATTO643) assembled on lambda-DNA (H. sapiens) (UniProt P0C0S5). Kind of assay: single-molecule DNA curtains (TIRF; two-colour co-localization); ATTO643-labeled H2A.Z nucleosomes on sparsely chromatinized double-tethered lambda-DNA, washed with 350 mM NaCl; LD555-INO80 flushed in, flow stopped; DNA curtains buffer with 1 mM ATP.

Assay [2] concerns the target S. cerevisiae wild-type INO80 complex, labeled with LD555 (S. cerevisiae) (UniProt P53115). Kind of assay: single-molecule DNA curtains (TIRF; fluorescence intensity and photobleaching steps); LD555-labeled INO80 on double-tethered lambda-DNA; 20 mM HEPES pH 8.0, 1 mg/mL BSA, 4 mM Mg(OAc)2, 1 mM ATP, 1 mM DTT, 120 mM KGlu; 125 to 250 pM INO80 injected.

For the substance “S. cerevisiae wild-type INO80 complex, labeled with LD555 (from UniProt P53115 1-1489; Q03940 1-463; Q12464 1-471; P53946 1-755; P32617 1-166; P60010 1-375; P80428 1-489; Q12386 1-881; P35189 1-244; P40154 1-320; Q08561 1-116; P43579 1-692; Q12345 1-250; P40060 1-125; Q03435 1-203)”, in assay [1], the co-localization time, second population (short associations) stood at 16.6 s; the co-localization time, third population (extremely long-lived co-localizations) amounted to 1200 s; the median interaction (co-localization) time is 15.3 s.

In assay [2], “S. cerevisiae wild-type INO80 complex, labeled with LD555 (from UniProt P53115 1-1489; Q03940 1-463; Q12464 1-471; P53946 1-755; P32617 1-166; P60010 1-375; P80428 1-489; Q12386 1-881; P35189 1-244; P40154 1-320; Q08561 1-116; P43579 1-692; Q12345 1-250; P40060 1-125; Q03435 1-203) (complex; LD555 on the ybbR-tag (Sfp with LD555-CoA); LD555 on the ybbR-tag (Sfp with LD555-CoA))” displayed a percent of DNA-bound complexes that are dimers of 11% and a stoichiometry N of 2.

For orientation: stoichiometry N means a count of units in the complex or per binding partner.
